Laboratory results: PMC10334806 (Proceedings of the National Academy of Sciences of the …, 2023)

T1: GST-MP (MONOPTEROS / AUXIN RESPONSE FACTOR5) (Arabidopsis thaliana, UniProt P93024 1-902)
T1 sequence (looked up): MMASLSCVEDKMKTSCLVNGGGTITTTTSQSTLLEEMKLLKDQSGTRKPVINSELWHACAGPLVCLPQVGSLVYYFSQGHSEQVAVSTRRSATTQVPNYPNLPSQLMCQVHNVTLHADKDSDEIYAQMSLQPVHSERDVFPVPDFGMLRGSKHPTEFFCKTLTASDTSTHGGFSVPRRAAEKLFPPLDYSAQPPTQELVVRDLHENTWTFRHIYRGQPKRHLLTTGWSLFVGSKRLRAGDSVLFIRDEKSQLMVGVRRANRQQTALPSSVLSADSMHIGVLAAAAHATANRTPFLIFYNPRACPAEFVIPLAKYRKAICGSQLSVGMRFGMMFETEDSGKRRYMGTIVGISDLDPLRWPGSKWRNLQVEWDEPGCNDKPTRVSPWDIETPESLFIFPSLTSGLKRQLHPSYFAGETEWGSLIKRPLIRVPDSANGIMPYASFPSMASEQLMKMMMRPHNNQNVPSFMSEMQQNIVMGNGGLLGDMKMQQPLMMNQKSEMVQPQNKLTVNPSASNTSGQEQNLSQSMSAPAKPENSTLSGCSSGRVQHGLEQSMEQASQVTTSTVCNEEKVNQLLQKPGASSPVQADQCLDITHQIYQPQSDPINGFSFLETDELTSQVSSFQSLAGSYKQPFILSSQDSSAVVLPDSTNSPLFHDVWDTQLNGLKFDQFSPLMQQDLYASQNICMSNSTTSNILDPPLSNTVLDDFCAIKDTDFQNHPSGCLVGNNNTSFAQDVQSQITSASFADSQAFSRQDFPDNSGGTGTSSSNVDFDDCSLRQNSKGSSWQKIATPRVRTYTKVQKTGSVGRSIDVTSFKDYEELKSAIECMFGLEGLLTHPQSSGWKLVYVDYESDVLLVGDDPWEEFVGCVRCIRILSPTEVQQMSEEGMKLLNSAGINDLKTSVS


Biological target: T1, GST-MP (MONOPTEROS / AUXIN RESPONSE …)
Experiment: pull-down

binding result | Binder
binds | 6xHis-MBP-DRNL (DORNROSCHEN-LIKE) (natural protein) not shown
binds | 6xHis-MBP-DRN (residues 1 to 200, protein-protein interaction domain) (domain or fragment) not shown
